Experimental data from PMC10397247.

Key:
Assay in all cases: two-hybrid library CCNG1;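 further: natural log of median RNA to DNA barcode read ratio; higher means stronger binding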
P9SHb = molecular target: T1, P9SHb
T1 chain: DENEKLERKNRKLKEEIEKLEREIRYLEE

P8SHb = molecular target: T2, P8SHb
T2 chain: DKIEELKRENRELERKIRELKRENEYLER

P12SHb = molecular target: T3, P12SHb
T3 chain: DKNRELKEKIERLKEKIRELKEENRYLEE

P3SHb = molecular target: T4, P3SHb
T4 chain: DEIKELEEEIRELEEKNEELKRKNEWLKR

P6SHb = molecular target: T5, P6SHb
T5 chain: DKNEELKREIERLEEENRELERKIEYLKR

P2SHb = molecular target: T6, P2SHb
T6 chain: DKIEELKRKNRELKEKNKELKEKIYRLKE

P1SHb = molecular target: T7, P1SHb
T7 chain: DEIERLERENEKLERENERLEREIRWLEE

P4SHb = molecular target: T8, P4SHb
T8 chain: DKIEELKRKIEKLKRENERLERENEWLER

P5SHb = molecular target: T9, P5SHb
T9 chain: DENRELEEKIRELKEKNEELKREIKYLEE

P7SHb = molecular target: T10, P7SHb
T10 chain: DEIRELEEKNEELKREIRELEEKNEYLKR

interaction score (P9SHb): 1.48
interaction score (P8SHb): -0.747
interaction score (P12SHb): -0.206
interaction score (P3SHb): 0.41
interaction score (P6SHb): 0.412
interaction score (P2SHb): -1.12
interaction score (P1SHb): -1.47
interaction score (P4SHb): -0.198
interaction score (P5SHb): 0.0253
interaction score (P7SHb): -0.593
Binder: DKNRELKEKIERLKEKIRELKEENRYLEE [P12SHb]
